Assay results from the domain aggregation screens of Martell et al. (2025).

Assay: soluble fraction after stress (log2 fold change); higher = more stays soluble; pooled small domains, quantitative proteomics
Conditions: stress: 50 degC
Method in brief: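 Each library was heated to 50°C as a stress step. The libraries, made up of small protein domains, were pooled and analysed at high throughput by quantitative proteomics. The reported value is the base-two logarithm of the fold change in each protein's soluble amount after stress, taken as a measure of aggregation propensity. The higher the value, the more protein stays in solution.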

Row | Sequence | soluble fraction (log2)
1 | HMIPLKTEAIPVSYGDGAAIIRSLAVAFPSRTFHWDAQTRRIIGQALDEEWQVIRSLVWQLDIP | -0.584
2 | HMIPLSDEETILLKLLEATETHLDALIRGSQLSAAKVSVVLMGMEMKRLVKRLPGQMYQRWD | -1.84
3 | HMIPRNLEDLVRENQIGLVILKIVEIIGEDNIRDLDPETIYFINRILNELNLKKIRNNILSEALPPR | -1.31
4 | HMIPSEQYNTALTEIGLSTRAHNSLRRAGIMTLGQLIEKTRDGLPPLPGFGDKSQVEVQDLLTGLGYPI | -0.203
5 | HMIPSGISEHPISKLPLSMSIIHRLELAGIKTIGDITGENFSRLQEIPRIGKVTAKRILEAIQSYSEQLP | -0.15
6 | HMIPYQDPLPKGAEESLLSKYPGFEITGVHFVNDTNFIGYKVRLERGEDREEISLDVNGKFL | 0.0829
7 | HMIQADFIPQVEQRLADRGLSMSGDVMAAFLDRAGYGLRHVSNEIEKLSLYLGDRKKVTVEDVVQMVAPVR | -0.283
8 | HMIQAGDLVFIWNPKKGDNFLIKVTPGMSQGTHFGQIKHTELMEREYGEGIVTPKGEVYYLLRPTLAGYTR | -0.973
9 | HMIQIGEQIRYYRTKIGISQEALALMADINPAYIGQIERGIKSPTVNTIKKIANAMGINLHTLFT | -2.91
10 | HMIQKTHPALEIVKEYFSSQAASEFEAERFFNYYTSNGWLIGGKTKMKDWQAAARNWILNTAK | -0.199
11 | HMIQNEITLMLQVNGKLRGQIQVPSDASKEQIEQLAKDSEAAQKALAGASPKKIIVVPGRLVNIV | -0.092
12 | HMIQQFTYAFAKDKGVVVLPGRDVLTLGMRAGADPLVLLEARRALGSSFELEPLDRDTYERTLADVFTADA | -0.695
13 | HMIQRLNVNTEVLSTYIRNSNTPIEYLRQKLPNIDKFLKGELEPTFNQVYALSKLINIPTGLLLLKEPIS | -0.995
14 | HMIQSEQIPFSKFLKEVDSGRVVQVEIQGNNINGVLSDGSKFKTYSPNYPELVGKLSDKGVSIVASPV | 0.106
15 | HMIQTKNVTFTINEKTKIANIPLKSLKILSQEDNRITLSYEKNSLKIDEIISYFSDKNINILDITTD | -0.451
16 | HMIQYRKILELHFKDISQRTISTSVGSSRNTVSDVIKRSEQLGLERLTDNMNNRWLEEFLFPEKQ | -4.17
17 | HMIRALVPGQTLHGEIVGRNGGEVQVRLAEDMILNARVDQNIYLELGKDLTFEVKNNGATLTLSPL | -0.272

Row | Sequence | soluble fraction (log2)
18 | HMIRDTTMYPVSVNGKKRYEWTVSKSISDDELKQQVLELEEIKKWIEGHEIKKLIFVPGRAINIV | -0.69
19 | HMIRDVDYNTFVSMVQEGKVGQVEIQEQNNRILFTDKDERTVYKTAMVPDSDLISRLLEAGVSTS | 0.204
20 | HMIRTGEVVTGKVINVKEDQIILNIGFKSDGIITRNEYTNDNSLDLRTVVHEGDEIEAKVLKVNDGEGQVV | ≥ 0.62
21 | HMIRVGRPQYKRGEFVSFDFDNGRKKTEMYGRVDVIDSYGTFGQGREVSYDIRASDGILYKHIPESSVYGF | -1.5
22 | HMIRVVSIEDQPWFVAADVLKSLGMPTDKGVGKYLLALGSDERMLTTHGQIGGKGMAVTTIISESGLY | -0.46
23 | HMISDAEWKIMNVLWEEQPRTMMQITKELQEETGWTKHTVMTYLKRMESKKIIHYVEGEKAKLYYS | -0.0967
24 | HMISDDLYQAVLDFTLTQDTISISRLQQNFNLGWPRARQLYDQLMQNGIIEPPDEANSAKGAVVIANKRG | 0.46
25 | HMISIKEAVFPFSRFPGVDTLLGPEMKSTGEVMGLADNFGHAYAKSQIASGSKLPESGTLFVSVKNSD | -0.309
26 | HMISKRFQIDEENAHKRIDIFLSHEFDSISRGIVQELIVKGEVLVNDKVTKRNYKLKTGDLVDITINL | -2.59
27 | HMITDQQKEQLSSLLKQAEAALAKAAANDQVLAAHKDEAVELLKSTSATSADAADLINELTELLKPYQ | 0.352
28 | HMITEDQVIARIGLLSPAEKSLLKDKLERFRRLTLSEQQHLREFHSALDNHDKRTDLLNVLRKYNDWVNQL | -1.67
29 | HMITEQEFQRVAAYVKNKAGINLNEKKVLVQGRLDSYMQRKGYSSYDEFMDRVERFPTGPEAEDLMNALTT | 0.0575
30 | HMITFRINQQSQVGLRLDKFIVQQMPDYSRTRIQSWIKTKNILVNGEGKKSGYALEFDDLVEVTIPE | -2.04
31 | HMITGREMDVLEALWSSEKPLVASDIPKMKPSLSISSVQLALRNLVKKKLVEVADIVYSGTVLSRSYRP | 0.0545
32 | HMITIDNYFNKEKELDFSSFPEALRKGHGFVSKATAHGSSWVSYHSSDAIKKTIDIYLSKLNEYLSNNAKA | -0.494
33 | HMITLYDLLGVSKTASSQEIKTAFKKKALQYHPDKNDGNPDKEEIFKRINMAYQVLGQPQSRANYDFSITP | -0.321
34 | HMITNMIIIMKPNASEEAIEKVKHLIESKGLQAHLSKGDEVTIVGVVGDKTRLHDSNIEISEGVDKIVNVT | 0.317
